Source: US20020045192A1 (ST JUDE CHILDREN S RESEARCH HOSPITAL, published 2002)
Where no end group is shown, it is not given here.

T1: Hdm2 peptide, residues 275-289 of SEQ ID NO:8 (H2 segment) (human)
T1 construct: also called H2 peptide; one from the H2 segment
T1 peptide: Ac-VYQVTVYQAGESDTD-NH2


Assays:
His-tagged Hdm2 210-304 [1] = biological target: T2, His-tagged Hdm2 210-304 (human, UniProt Q00987 210-304); experiment: SPR, His-tagged Hdm2 210-304 captured by anti-His antibody, peptide injected 10 min, signal minus reference cell [a]
T2 construct: Captured on the C-1 chip by anti-His antibody for the Arf peptide library SPR; Tag placed first here
Protocol: (§1) Reactive sites remaining on the surface were blocked by reaction with ethanolamine. The His-tagged ligand was attached to the antibody by injecting a 5-10 μg/ml solution of the ligand in 10 mM HEPES, 150 mM NaCl, pH 7.4 (HBS-N buffer, Biacore) at a flow rate of 10 μL/min through the flow cell. A reference cell was prepared similarly except that no His-tagged ligand was added. Binding was measured by flowing the non-His-tagged analyte through the reference and ligand-containing flow cells in sequence. Prior to injection of ligands, the chip surfaces were equilibrated in HBS-N buffer. Changes in the SPR response due to solvent differences and the injection process were monitored by injection of HBS-N buffer alone. Regeneration of the chip surface to remove bound analyte and ligand was accomplished by two 100 μL injections of 10 mM glycine, pH 2.0 through both flow cells. Data reported is the difference in SPR signal between the flow cell containing analyte and the reference cell. Duplicate injections were made and the SPR response values reported are the average of these two injections.
(§2) Two libraries of peptides 15 amino acids in length were synthesized based on the sequence of exon 1β of mouse p19^Arf and the entire sequence of human p14^Arf. The sequence for the first peptide in each library corresponded to the first 15 amino acids of the protein sequences. […] This approach yielded two libraries of overlapping peptides spanning mouse p19^Arf residues 1-64 and human p14^Arf residues 1-132. The ability of these peptides to bind Hdm2 fragments was determined using the surface plasmon resonance (SPR) technique with a Biacore 3000 instrument. […] Library peptides were allowed to flow over the Hdm2 surface, or over a control surface lacking an Hdm2 fragment.

[2] = biological target: T3, Hdm2 210-304 (residues 210-304 of SEQ ID NO:8, His tag cleaved) (human, UniProt Q00987 210-304); experiment: CD titration, ellipticity at 200 nm
T3 construct: Non-His-tagged analyte in SPR; also used in CD, NMR, gel filtration
Protocol: (§3) Further, saturable binding is also observed when the Hdm2 fragments were added to an excess of mArfN37.

[3] = biological target: T4, Hdm2 210-275 (residues 210-275 of SEQ ID NO:8, His tag cleaved) (human, UniProt Q00987 210-275); experiment: CD titration, ellipticity at 200 nm
Protocol: as §3

[4] = biological target: T3, Hdm2 210-304 (residues 210-304 of SEQ …); experiment: CD-based binding assay
[5] = biological target: T4, Hdm2 210-275 (residues 210-275 of SEQ …); experiment: CD-based binding assay
[6] = biological target: T1, Hdm2 peptide, residues 275-289 of SEQ …; experiment: CD titration, failure to induce structure
His-tagged Hdm2 210-304 [7] = biological target: T2, His-tagged Hdm2 210-304; experiment: SPR, His-tagged Hdm2 210-304 captured by anti-His antibody, peptide injected 10 min, signal minus reference cell [b]
Protocol: as §1, §2

T4 sequence (Q00987 210-275): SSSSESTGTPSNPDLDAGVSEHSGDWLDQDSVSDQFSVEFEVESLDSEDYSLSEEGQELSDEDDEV
T2 sequence (Q00987 210-304): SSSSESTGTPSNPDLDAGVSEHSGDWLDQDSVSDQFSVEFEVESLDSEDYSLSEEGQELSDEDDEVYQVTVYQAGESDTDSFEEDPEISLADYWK
T3 sequence (Q00987 210-304): as above

Row | binding result (His-tagged Hdm2 210-304 [1]) | binding result [4] | binding result [5] | Binder | binding result [6] | also measured
1 | no binding | – | – | Ac-IQRAGRPLQERVFLV-NH2 (also called mouse p19Arf library peptide, residues 11-25) [11-25 (mouse Arf peptide)] | – | –
2 | no binding | – | – | Ac-AFVNMLLRLERILRR-NH2 (also called mouse p19Arf library peptide, residues 41-55) [41-55 (mouse Arf peptide)] | – | –
3 | – | binds | binds | Ac-MGRRFLVTVRIQRA-NH2 (the peptide tested spans 1-14; also called mouse A1) [mouse Arf motif peptide A1 (1-14)] | no binding (tested: 1-10 µM (concentrations used)) | –
4 | – | binds | no binding | Ac-GPPRVRVFVVHIPRL-NH2 (the peptide tested is the 15-mer 16-30; also called fourth peptide of the human library; human A2 (16-30)) [human p14Arf peptide, residues 16-30 (contains the human A2 motif)] | no binding (tested: 1-10 µM (concentrations used)) | binding result (His-tagged Hdm2 210-304 [7]): binds
5 | binds | binds | no binding | Ac-RPLQERVFLVKFVRS-NH2 (Same limits as the fourth peptide of the mouse library, so possibly a member of group m12; also called mouse A2) [mouse Arf motif peptide A2 (16-30)] | no binding (tested: 1-10 µM (concentrations used)) | –

The next lines start with the binder.

Row | Binder | binding result (His-tagged Hdm2 210-304 [1]) | binding result [4] | binding result [5] | binding result [6] | also measured
6 | Ac-MGRRFLVTVRIQRAG-NH2 (also called mouse p19Arf library peptide, residues 1-15) [1-15 (mouse Arf peptide)] | binds | – | – | – | –
7 | Ac-LVTVRIQRAGRPLQE-NH2 (also called mouse p19Arf library peptide, residues 6-20) [6-20 (mouse Arf peptide)] | binds | – | – | – | –
8 | Ac-RVFLVKFVRSRRPRT-NH2 (also called mouse p19Arf library peptide, residues 21-35) [21-35 (mouse Arf peptide)] | binds | – | – | – | –
9 | Ac-RRPRTASCALAFVNM-NH2 [mouse p19Arf library peptide, residues 31-45 (contains the NoLS RRPR)] | binds | – | – | – | –
10 | Ac-KFVRSRRPRTASCAL-NH2 (also called mouse p19Arf library peptide, residues 26-40) [26-40 (mouse Arf peptide)] | binds | – | – | – | –
11 | MGRRFLVTVRIQRAGRPLQERVFLVKFVRSRRPRTAS (not fully specified, Tag-cleaved form used in CD, NMR and gel filtration; also called 15N-mArfN37) [mArfN37 (N-terminal fragment of mouse p19Arf, residues 1-37, His tag cleaved)] | – | – | – | – | Kd [2]: < 5 µM; Kd [3]: < 5 µM
12 | Ac-MVRRFLVTLRIRRA-NH2 (the peptide tested spans 1-14; also called human A1) [human Arf motif peptide A1 (1-14)] | – | binds | binds | no binding (tested: 1-10 µM (concentrations used)) | –
